# T1: CEACAM8 on transfected HeLa cells (human, UniProt P31997 35-320)
# T1 construct: whole, on cells; also called HeLa-CEACAM8; HeLa C8
# T1 sequence (looked up): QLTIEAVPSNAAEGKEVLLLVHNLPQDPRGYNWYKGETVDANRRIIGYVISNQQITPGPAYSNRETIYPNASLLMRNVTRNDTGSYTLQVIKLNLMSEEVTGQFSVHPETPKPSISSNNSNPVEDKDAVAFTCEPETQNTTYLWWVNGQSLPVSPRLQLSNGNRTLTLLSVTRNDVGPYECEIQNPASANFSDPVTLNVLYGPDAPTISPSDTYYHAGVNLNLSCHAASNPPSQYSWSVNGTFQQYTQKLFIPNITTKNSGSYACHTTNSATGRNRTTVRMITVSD
# T2: GST-CEACAM1 (human, UniProt P13688 35-141, limits assumed)
# T2 construct: also called human CEACAM1-GST protein
# T2 sequence: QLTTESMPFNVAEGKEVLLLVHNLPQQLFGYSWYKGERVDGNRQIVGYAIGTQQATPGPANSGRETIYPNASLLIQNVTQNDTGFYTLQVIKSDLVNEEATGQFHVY
# T3: CEACAM6 on transfected HeLa cells (human, UniProt P40199 35-320)
# T3 construct: whole, on cells; also called HeLa-CEACAM6; HeLa C6
# T3 sequence (looked up): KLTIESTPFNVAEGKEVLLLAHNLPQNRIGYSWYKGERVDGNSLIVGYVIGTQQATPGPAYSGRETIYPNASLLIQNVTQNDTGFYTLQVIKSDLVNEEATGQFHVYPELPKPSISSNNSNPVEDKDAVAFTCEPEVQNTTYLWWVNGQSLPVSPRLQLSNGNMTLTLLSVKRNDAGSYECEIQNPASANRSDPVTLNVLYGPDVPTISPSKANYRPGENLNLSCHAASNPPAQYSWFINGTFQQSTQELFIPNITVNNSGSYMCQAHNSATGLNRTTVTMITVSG
# T4: His-tagged CEACAM1 (human, UniProt P13688 35-428)
# T4 construct: 45 kDa SPR analyte; also called CEACAM1-HIS; CEACAM1 analyte
# T4 sequence: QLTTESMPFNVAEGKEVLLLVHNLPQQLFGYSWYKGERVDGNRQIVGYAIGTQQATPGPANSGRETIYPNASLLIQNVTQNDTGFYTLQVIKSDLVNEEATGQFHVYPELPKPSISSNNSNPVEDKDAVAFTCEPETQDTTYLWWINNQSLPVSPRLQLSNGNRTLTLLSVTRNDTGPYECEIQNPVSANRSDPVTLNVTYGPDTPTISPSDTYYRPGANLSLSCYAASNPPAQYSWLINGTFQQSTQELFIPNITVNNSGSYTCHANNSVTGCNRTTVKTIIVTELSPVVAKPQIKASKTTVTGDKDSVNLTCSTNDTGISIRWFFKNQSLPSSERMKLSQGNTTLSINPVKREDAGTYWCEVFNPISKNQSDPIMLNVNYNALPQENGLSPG
# Tests used:
# [1] = target: T1, CEACAM8 on transfected HeLa cells; experiment: flow cytometry titration, HeLa-CEACAM8 transfectants, anti-human IgG4 FITC
# Procedure: (§1) FIGS. 31A and 31B show flow cytometry analyses of stable HeLa CEACAM1 (HeLa C1) transfectant, stable HeLa CEACAM3 transfectant (HeLa C3), stable HeLa CEACAM5 transfectant (HeLa C5), stable HeLa CEACAM6 transfectant (HeLa C6), and stable HeLa CEACAM8 transfectant (HeLa C8). FIG. 31A: 5×10\hat{ }4 indicated HeLa transfectants were washed with staining buffer and CP08H03/Vκ8 S29A (labeled “CP08”, left) or CEACAM1 antibody CM-24 was incubated at room temperature for 30 min, washed twice with staining buffer, and stained for anti-human IgG4 Fluorescein isothiocyanate (FITC) conjugated secondary antibody at room temperature for 20 min. Fluorescence intensities were determined by flow cytometry. Live cells were determined by 4′,6-diamidino-2-phenylindole (DAPI) staining as shown on the y-axis. Staining with the respective CEACAM1 antibody is shown on the x-axis. […]
# (§2) The cervical adenocarcinoma cell line HeLa (ATCC No CCL-2) as well as transfected cell lines HeLaCEACAM1, HeLaCEACAM3, HeLaCEACAM5, HeLaCEACAM6 and HeLaCEACAM8 used for flow cytometry experiments were cultured at 37° C., 5.0% CO₂ in Dulbecco's modified Eagle's medium supplemented with 10% fetal bovine serum, penicillin (100 U/ml) and dihydrostreptomycin (100 μg/ml). […] Data were acquired with a Cytoflex flow cytometer (Invitrogen) and analyzed with FlowJo software (TreeStar, V7.6.5 for Windows).
# GST-CEACAM1 = target: T2, GST-CEACAM1; experiment: competition ELISA: binding of human CEACAM1-GST (37.5 µg/ml) to human CEACAM1 IgV domain tagless protein (1 µg/ml), anti-GST detection, OD 450 nm
# Procedure: The ability of the CEACAM1 antibodies to block CEACAM1 homodimerization was tested. […] In addition, IgG4 antibody was used as a control (0-1000 nM). Goat polyclonal anti-GST-HSP antibody from Abcam (1:2000) was used and assays were developed by addition of TMB solution (Life technologies). OD values were read at 450 nm on a plate reader. Data was plotted in a Graphpad and best-fit IC-50 values were determined.
# [2] = target: T3, CEACAM6 on transfected HeLa cells; experiment: flow cytometry titration, HeLa-CEACAM6 transfectants, anti-human IgG4 FITC
# Procedure: as §1, §2
# [3] = target: T1, CEACAM8 on transfected HeLa cells; experiment: flow cytometry, transfected HeLa
# Outline: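 Binding selectivity was assessed by flow cytometry and is expressed as the staining of each HeLa transfectant, each stably carrying a single CEACAM family member. The cells were kept at 37° C, 5.0% CO₂ in DMEM containing 10% fetal bovine serum. Staining used the test antibody followed by a fluorochrome-conjugated isotype-specific secondary antibody, and DAPI marked viability.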
# His-tagged CEACAM1 = target: T4, His-tagged CEACAM1; experiment: SPR multi-cycle
# Outline: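 Surface plasmon resonance sensorgrams on a Biacore T200 provided Kon, koff, Kd and relative KD. Antibody at 1 μg/ml was captured to ~75 RU on a Series S Protein A chip, then His-tagged CEACAM1 was injected at 80 μl/min in 2-fold steps from 200 to 3.125 nM or 100 to 1.5625 nM, with 50 or 150 seconds of association and 100 seconds of dissociation, at 25° C in HBS-P+ (pH 7.4).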
Binder,binding result [1],IC50 (GST-CEACAM1) [nM],binding result [2],binding result [3],Kd (His-tagged CEACAM1) [nM],koff (His-tagged CEACAM1) [s⁻¹],kon (His-tagged CEACAM1) [M⁻¹ s⁻¹],relative KD (His-tagged CEACAM1)
"CP08H03/Vκ8 S29A (antibody, IgG4, V domains shown, IgG4 (S241P), kappa; also called CP08_H03/Parent VL; CP08_H03/Parental) VH: EVQLLESGGGLVQPGGSLRLSCAASGFIFSSHGMSWVRQAPGKGLEWVATISSGGTYTYYPDSVKGRFTISRDNSKNTLYLQMNSLKAEDTAMYYCARHDFDYFPYWFAHWGQGTLVTVSS VL: EIVLTQSPATLSLSPGERATLSCRANSAVSYMYWYQQKPGQAPRPWIYLTSNRATGVPARFSGSGSGTDYTLTISSLEPEDFAVYYCQQWSSNPPTFGQGTKLEIK",no binding (tested: 100 ug/ml),2.11,no binding (tested: 100 ug/ml),,,,,
"chimeric antibody VH0/Vκ0 (antibody, IgG4, V domains shown, IgG4 (S241P), kappa; also called VH0/Vκ0 (control); Chimeric VH0/Vκ0) VH: EVQLVESGGDLVKPGGSLKLACAASGFIFSSHGMSWVRQTPDKRLEWVATISSGGTYTYYPDSVKGRFTISRDNDKNTLYLQMNSLKSEDTAMYYCARHDFDYDAAWFAYWGQGTLVTVSS VL: QIVLTQSPALMSASPGVKVTMTCSANSSVSYMYWYRQKPRSSPKPWIYLTSNLASGVPARFSGSGSGTSYSLTISSMEAEDAATYYCQQWSSNPPTFGSGTKLEIK",,,,no binding,105,0.0258,246000,1

# Reference: patent US20250074980A1 (BRIGHAM AND WOMEN S HOSPITAL, published 2025)
